Results taken from US20180037651A1 (Janssen / Centocor, published 2018).

Molecular target: T1, human GPRC5D (human, UniProt Q9NZD1 1-345)
T1 construct: on transfected HEK293/RBL cells or endogenous on myeloma cells (H929, MM1R, OPM2, LP1, JIM3, patient plasma cells); also called G protein-coupled receptor class C group 5 member D; hGPRC5D
Experiment: FACS, human GPRC5D cells

T1 sequence (Q9NZD1 whole entry): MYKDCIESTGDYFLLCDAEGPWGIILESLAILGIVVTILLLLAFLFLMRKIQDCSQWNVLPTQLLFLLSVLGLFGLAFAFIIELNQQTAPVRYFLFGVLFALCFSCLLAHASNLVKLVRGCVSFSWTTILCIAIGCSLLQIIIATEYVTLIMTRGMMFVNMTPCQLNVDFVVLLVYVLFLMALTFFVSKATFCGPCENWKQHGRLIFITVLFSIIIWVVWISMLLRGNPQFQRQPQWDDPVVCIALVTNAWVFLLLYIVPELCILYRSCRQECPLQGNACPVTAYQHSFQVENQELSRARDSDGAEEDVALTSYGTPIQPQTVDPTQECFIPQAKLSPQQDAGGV

Binder | MFI [mfi]
GC5B472 (antibody, V domains shown, GC5B164 PTM variant; also called GC5H277) VH: EVQLVQSGAEVKKPGESLKISCKGSGYSFTSYVIGWVRQMPGKGLEWMGIIYPGASDTRYSPSFQGQVTISADKSISTAYLQWSSLKASDTAMYYCARVYSFGGRHKALFDYWGQGTLVTVSS VL: EIVLTQSPATLSLSPGERATLSCRASQSVSSYLAWYQQKPGQAPRLLIYDASNRATGIPARFSGSGSGTDFTLTISSLEPEDFAVYYCQQRSNWPLTFGQGTKVEIK | 1000 to 10000
GC5B483 (antibody, IgG4, V domains shown, GC5B164 PTM variant D55K, W33F; IgG4 S228P, L234A, L235A; also called GC5H266) VH: EVQLVQSGAEVKKPGESLKISCKGSGYSFTSYFIGWVRQMPGKGLEWMGIIYPGKSDTRYSPSFQGQVTISADKSISTAYLQWSSLKASDTAMYYCARVYSFGGRHKALFDYWGQGTLVTVSS VL: EIVLTQSPATLSLSPGERATLSCRASQSVSSYLAWYQQKPGQAPRLLIYDASNRATGIPARFSGSGSGTDFTLTISSLEPEDFAVYYCQQRSNWPLTFGQGTKVEIK | > 10000
GC5B484 (antibody, V domains shown, GC5B164 PTM variant; also called GC5H265) VH: EVQLVQSGAEVKKPGESLKISCKGSGYSFTSYGIGWVRQMPGKGLEWMGIIYPGKSDTRYSPSFQGQVTISADKSISTAYLQWSSLKASDTAMYYCARVYSFGGRHKALFDYWGQGTLVTVSS VL: EIVLTQSPATLSLSPGERATLSCRASQSVSSYLAWYQQKPGQAPRLLIYDASNRATGIPARFSGSGSGTDFTLTISSLEPEDFAVYYCQQRSNWPLTFGQGTKVEIK | 1000 to 10000
GC5B482 (antibody, V domains shown, GC5B164 PTM variant; also called GC5H267) VH: EVQLVQSGAEVKKPGESLKISCKGSGYSFTSYVIGWVRQMPGKGLEWMGIIYPGKSDTRYSPSFQGQVTISADKSISTAYLQWSSLKASDTAMYYCARVYSFGGRHKALFDYWGQGTLVTVSS VL: EIVLTQSPATLSLSPGERATLSCRASQSVSSYLAWYQQKPGQAPRLLIYDASNRATGIPARFSGSGSGTDFTLTISSLEPEDFAVYYCQQRSNWPLTFGQGTKVEIK | > 10000
GC5B481 (antibody, V domains shown, GC5B164 PTM variant; also called GC5H268) VH: EVQLVQSGAEVKKPGESLKISCKGSGYSFTSYYIGWVRQMPGKGLEWMGIIYPGKSDTRYSPSFQGQVTISADKSISTAYLQWSSLKASDTAMYYCARVYSFGGRHKALFDYWGQGTLVTVSS VL: EIVLTQSPATLSLSPGERATLSCRASQSVSSYLAWYQQKPGQAPRLLIYDASNRATGIPARFSGSGSGTDFTLTISSLEPEDFAVYYCQQRSNWPLTFGQGTKVEIK | > 10000
GC5B487 (antibody, V domains shown, GC5B164 PTM variant; also called GC5H262) VH: EVQLVQSGAEVKKPGESLKISCKGSGYSFTSYVIGWVRQMPGKGLEWMGIIYPGESDTRYSPSFQGQVTISADKSISTAYLQWSSLKASDTAMYYCARVYSFGGRHKALFDYWGQGTLVTVSS VL: EIVLTQSPATLSLSPGERATLSCRASQSVSSYLAWYQQKPGQAPRLLIYDASNRATGIPARFSGSGSGTDFTLTISSLEPEDFAVYYCQQRSNWPLTFGQGTKVEIK | 1000 to 10000
GC5B486 (antibody, V domains shown, GC5B164 PTM variant; also called GC5H263) VH: EVQLVQSGAEVKKPGESLKISCKGSGYSFTSYYIGWVRQMPGKGLEWMGIIYPGESDTRYSPSFQGQVTISADKSISTAYLQWSSLKASDTAMYYCARVYSFGGRHKALFDYWGQGTLVTVSS VL: EIVLTQSPATLSLSPGERATLSCRASQSVSSYLAWYQQKPGQAPRLLIYDASNRATGIPARFSGSGSGTDFTLTISSLEPEDFAVYYCQQRSNWPLTFGQGTKVEIK | > 10000
GC5B491 (antibody, V domains shown, GC5B164 PTM variant; also called GC5H258) VH: EVQLVQSGAEVKKPGESLKISCKGSGYSFTSYYIGWVRQMPGKGLEWMGIIYPGYSDTRYSPSFQGQVTISADKSISTAYLQWSSLKASDTAMYYCARVYSFGGRHKALFDYWGQGTLVTVSS VL: EIVLTQSPATLSLSPGERATLSCRASQSVSSYLAWYQQKPGQAPRLLIYDASNRATGIPARFSGSGSGTDFTLTISSLEPEDFAVYYCQQRSNWPLTFGQGTKVEIK | > 10000
GC5B494 (antibody, V domains shown, GC5B164 PTM variant; also called GC5H255) VH: EVQLVQSGAEVKKPGESLKISCKGSGYSFTSYGIGWVRQMPGKGLEWMGIIYPGYSDTRYSPSFQGQVTISADKSISTAYLQWSSLKASDTAMYYCARVYSFGGRHKALFDYWGQGTLVTVSS VL: EIVLTQSPATLSLSPGERATLSCRASQSVSSYLAWYQQKPGQAPRLLIYDASNRATGIPARFSGSGSGTDFTLTISSLEPEDFAVYYCQQRSNWPLTFGQGTKVEIK | 1000 to 10000
GC5B485 (antibody, V domains shown, GC5B164 PTM variant; also called GC5H264) VH: EVQLVQSGAEVKKPGESLKISCKGSGYSFTSYAIGWVRQMPGKGLEWMGIIYPGKSDTRYSPSFQGQVTISADKSISTAYLQWSSLKASDTAMYYCARVYSFGGRHKALFDYWGQGTLVTVSS VL: EIVLTQSPATLSLSPGERATLSCRASQSVSSYLAWYQQKPGQAPRLLIYDASNRATGIPARFSGSGSGTDFTLTISSLEPEDFAVYYCQQRSNWPLTFGQGTKVEIK | 1000 to 10000
GC5B478 (antibody, V domains shown, GC5B164 PTM variant; also called GC5H271) VH: EVQLVQSGAEVKKPGESLKISCKGSGYSFTSYFIGWVRQMPGKGLEWMGIIYPGSSDTRYSPSFQGQVTISADKSISTAYLQWSSLKASDTAMYYCARVYSFGGRHKALFDYWGQGTLVTVSS VL: EIVLTQSPATLSLSPGERATLSCRASQSVSSYLAWYQQKPGQAPRLLIYDASNRATGIPARFSGSGSGTDFTLTISSLEPEDFAVYYCQQRSNWPLTFGQGTKVEIK | > 10000
GC5B480 (antibody, V domains shown, GC5B164 PTM variant; also called GC5H269) VH: EVQLVQSGAEVKKPGESLKISCKGSGYSFTSYAIGWVRQMPGKGLEWMGIIYPGSSDTRYSPSFQGQVTISADKSISTAYLQWSSLKASDTAMYYCARVYSFGGRHKALFDYWGQGTLVTVSS VL: EIVLTQSPATLSLSPGERATLSCRASQSVSSYLAWYQQKPGQAPRLLIYDASNRATGIPARFSGSGSGTDFTLTISSLEPEDFAVYYCQQRSNWPLTFGQGTKVEIK | 1000 to 10000
GC5B475 (antibody, V domains shown, GC5B164 PTM variant; also called GC5H274) VH: EVQLVQSGAEVKKPGESLKISCKGSGYSFTSYAIGWVRQMPGKGLEWMGIIYPGASDTRYSPSFQGQVTISADKSISTAYLQWSSLKASDTAMYYCARVYSFGGRHKALFDYWGQGTLVTVSS VL: EIVLTQSPATLSLSPGERATLSCRASQSVSSYLAWYQQKPGQAPRLLIYDASNRATGIPARFSGSGSGTDFTLTISSLEPEDFAVYYCQQRSNWPLTFGQGTKVEIK | 1000 to 10000
GC5B476 (antibody, V domains shown, GC5B164 PTM variant; also called GC5H273) VH: EVQLVQSGAEVKKPGESLKISCKGSGYSFTSYYIGWVRQMPGKGLEWMGIIYPGSSDTRYSPSFQGQVTISADKSISTAYLQWSSLKASDTAMYYCARVYSFGGRHKALFDYWGQGTLVTVSS VL: EIVLTQSPATLSLSPGERATLSCRASQSVSSYLAWYQQKPGQAPRLLIYDASNRATGIPARFSGSGSGTDFTLTISSLEPEDFAVYYCQQRSNWPLTFGQGTKVEIK | > 10000
GC5B473 (antibody, V domains shown, GC5B164 PTM variant; also called GC5H276) VH: EVQLVQSGAEVKKPGESLKISCKGSGYSFTSYFIGWVRQMPGKGLEWMGIIYPGASDTRYSPSFQGQVTISADKSISTAYLQWSSLKASDTAMYYCARVYSFGGRHKALFDYWGQGTLVTVSS VL: EIVLTQSPATLSLSPGERATLSCRASQSVSSYLAWYQQKPGQAPRLLIYDASNRATGIPARFSGSGSGTDFTLTISSLEPEDFAVYYCQQRSNWPLTFGQGTKVEIK | > 10000
GC5B493 (antibody, V domains shown, GC5B164 PTM variant; also called GC5H256) VH: EVQLVQSGAEVKKPGESLKISCKGSGYSFTSYFIGWVRQMPGKGLEWMGIIYPGYSDTRYSPSFQGQVTISADKSISTAYLQWSSLKASDTAMYYCARVYSFGGRHKALFDYWGQGTLVTVSS VL: EIVLTQSPATLSLSPGERATLSCRASQSVSSYLAWYQQKPGQAPRLLIYDASNRATGIPARFSGSGSGTDFTLTISSLEPEDFAVYYCQQRSNWPLTFGQGTKVEIK | > 10000
GC5B488 (antibody, V domains shown, GC5B164 PTM variant; also called GC5H261) VH: EVQLVQSGAEVKKPGESLKISCKGSGYSFTSYFIGWVRQMPGKGLEWMGIIYPGESDTRYSPSFQGQVTISADKSISTAYLQWSSLKASDTAMYYCARVYSFGGRHKALFDYWGQGTLVTVSS VL: EIVLTQSPATLSLSPGERATLSCRASQSVSSYLAWYQQKPGQAPRLLIYDASNRATGIPARFSGSGSGTDFTLTISSLEPEDFAVYYCQQRSNWPLTFGQGTKVEIK | > 10000
GC5B477 (antibody, V domains shown, GC5B164 PTM variant; also called GC5H272) VH: EVQLVQSGAEVKKPGESLKISCKGSGYSFTSYVIGWVRQMPGKGLEWMGIIYPGSSDTRYSPSFQGQVTISADKSISTAYLQWSSLKASDTAMYYCARVYSFGGRHKALFDYWGQGTLVTVSS VL: EIVLTQSPATLSLSPGERATLSCRASQSVSSYLAWYQQKPGQAPRLLIYDASNRATGIPARFSGSGSGTDFTLTISSLEPEDFAVYYCQQRSNWPLTFGQGTKVEIK | 1000 to 10000
GC5B492 (antibody, V domains shown, GC5B164 PTM variant; also called GC5H257) VH: EVQLVQSGAEVKKPGESLKISCKGSGYSFTSYVIGWVRQMPGKGLEWMGIIYPGYSDTRYSPSFQGQVTISADKSISTAYLQWSSLKASDTAMYYCARVYSFGGRHKALFDYWGQGTLVTVSS VL: EIVLTQSPATLSLSPGERATLSCRASQSVSSYLAWYQQKPGQAPRLLIYDASNRATGIPARFSGSGSGTDFTLTISSLEPEDFAVYYCQQRSNWPLTFGQGTKVEIK | > 10000
GC5B479 (antibody, V domains shown, GC5B164 PTM variant; also called GC5H270) VH: EVQLVQSGAEVKKPGESLKISCKGSGYSFTSYGIGWVRQMPGKGLEWMGIIYPGSSDTRYSPSFQGQVTISADKSISTAYLQWSSLKASDTAMYYCARVYSFGGRHKALFDYWGQGTLVTVSS VL: EIVLTQSPATLSLSPGERATLSCRASQSVSSYLAWYQQKPGQAPRLLIYDASNRATGIPARFSGSGSGTDFTLTISSLEPEDFAVYYCQQRSNWPLTFGQGTKVEIK | 1000 to 10000
GC5B474 (antibody, V domains shown, GC5B164 PTM variant; also called GC5H275) VH: EVQLVQSGAEVKKPGESLKISCKGSGYSFTSYGIGWVRQMPGKGLEWMGIIYPGASDTRYSPSFQGQVTISADKSISTAYLQWSSLKASDTAMYYCARVYSFGGRHKALFDYWGQGTLVTVSS VL: EIVLTQSPATLSLSPGERATLSCRASQSVSSYLAWYQQKPGQAPRLLIYDASNRATGIPARFSGSGSGTDFTLTISSLEPEDFAVYYCQQRSNWPLTFGQGTKVEIK | 1000 to 10000
GC5B490 (antibody, V domains shown, GC5B164 PTM variant; also called GC5H259) VH: EVQLVQSGAEVKKPGESLKISCKGSGYSFTSYAIGWVRQMPGKGLEWMGIIYPGESDTRYSPSFQGQVTISADKSISTAYLQWSSLKASDTAMYYCARVYSFGGRHKALFDYWGQGTLVTVSS VL: EIVLTQSPATLSLSPGERATLSCRASQSVSSYLAWYQQKPGQAPRLLIYDASNRATGIPARFSGSGSGTDFTLTISSLEPEDFAVYYCQQRSNWPLTFGQGTKVEIK | 1000 to 10000
